The text below walks through data of PMC9489553, “Biochemical and clinical studies of putative allergens to assess what distinguishes them from other non-allergenic proteins in the same family” (Transgenic Research, 2022).

Data set [1] deals with the molecule itself. Briefly: crystal structure; ChALDH apoenzyme, hanging drop at 4 °C, 20% PEG-100, 100 mM sodium/potassium phosphate pH 6.2, 200 mM NaCl; 3.18 Å.
Data set [2] deals with the molecule itself. Briefly: crystal structure; ChMDH with 5 mM NADP+, hanging drop at 4 °C, 25% PEG-1500, sodium propionate/sodium cacodylate/BIS-TRIS propane pH 7.0; 2.04 Å.

B1: Cladosporium herbarum (aka Davidiella tassiana) aldehyde dehydrogenase (enzyme)
chain: MTSVQLETPHSGKYEQPTGLFINNEFVKGQEGKTFDVINPSDESVITQVHEATEKDVDIAVAAARKAFEGSWRQETPENRGKLLNNLANLFEKNIDLLAAVESLDNGKAISMAKGDISMCVGCLRYYGGWADKITGKVIDTTPDTFNYVKKEPIGVCGQIIPWNFPLLMWAWKIGPAIACGNTVVLKTAEQTPLGGLVAASLVKEAGFPPGVINVISGFGKVAGAALSSHMDVDKVAFTGSTVVGRTILKAAASSNLKKVTLELGGKSPNIVFEDADIDNAISWVNFGIFFNHGQCCCAGSRVYVQESIYDKFVQKFKERAQKNVVGDPFAADTFQGPQVSKVQFDRIMEYIQAGKDAGATVETGGKRKGDKGYFIEPTIFSNVTEDMKIVKEEIFGPVCSIAKFKTKEDAIKLGNASTYGLAAAVHTKNLNTAIEVSNALKAGTVWVNTYNTLHHQMPFGGYKESGIGRELGEDALANYTQTKTVSIRLGDALFG
notes: aldehyde dehydrogenase of Cladosporium herbarum (aka Davidiella tassiana), GenBank CAA55072.2; codon-optimised synthetic gene in pET-28a; Apoenzyme in the crystal; also called ChALDH; C. herbarum ALDH; source: E. coli BL21 (DE3), purified (Ni-NTA, size-exclusion chromatography); not shown: His-tag, N-terminal, cleaved
Consider B1, for which the “stoichiometry N” value in data set [1] is 4.

B2: Cladosporium herbarum mannitol dehydrogenase (enzyme)
chain: MPGQQATKHESLLDQLSLKGKVVVVTGASGPKGMGIEAARGCAEMGAAVAITYASRAQGAEENVKELEKTYGIKAKAYKCQVDSYESCEKLVKDVVADFGQIDAFIANAGATADSGILDGSVEAWNHVVQVDLNGTFHCAKAVGHHFKERGTGSLVITASMSGHIANFPQEQTSYNVAKAGCIHMARSLANEWRDFARVNSISPGYIDTGLSDFVPKETQQLWHSMIPMGRDGLAKELKGAYVYFASDASTYTTGADLLIDGGYTTR
notes: codon-optimised synthetic gene in pET-28a; Crystallised in complex with NADP+; also called ChMDH; C. herbarum MDH; source: E. coli BL21 (DE3), purified (Ni-NTA, size-exclusion chromatography); not shown: His-tag, N-terminal, cleaved
Regarding B2, in data set [2], the “stoichiometry N” value is 4.

For orientation: stoichiometry N means the number of molecules, sites or subunits per partner or assembly.
